Data from US20240101668A1 (WUGEN, published 2024).

T1: huCLL1-K244-Avi-Tev-His (human, UniProt Q5QGZ9 65-265)
T1 construct: extracellular domain
T1 sequence (looked up): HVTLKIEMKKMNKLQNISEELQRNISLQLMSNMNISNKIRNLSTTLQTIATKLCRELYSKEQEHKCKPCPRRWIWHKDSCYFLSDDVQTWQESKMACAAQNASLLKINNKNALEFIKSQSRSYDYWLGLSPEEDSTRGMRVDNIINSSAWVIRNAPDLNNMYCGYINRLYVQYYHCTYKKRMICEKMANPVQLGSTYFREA

T2: huCLL1-Q244-Avi-Tev-His (human, UniProt Q5QGZ9 65-265)
T2 construct: extracellular domain; also called CLL-1 K244Q
T2 sequence (looked up): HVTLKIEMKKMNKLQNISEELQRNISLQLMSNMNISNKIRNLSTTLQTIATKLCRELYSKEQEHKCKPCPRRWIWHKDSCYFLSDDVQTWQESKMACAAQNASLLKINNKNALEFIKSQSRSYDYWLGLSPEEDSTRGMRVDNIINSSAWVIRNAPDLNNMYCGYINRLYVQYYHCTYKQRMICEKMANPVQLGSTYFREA


Tests used:
huCLL1-K244-Avi-Tev-His = target: T1, huCLL1-K244-Avi-Tev-His; assay: BLI
huCLL1-Q244-Avi-Tev-His = target: T2, huCLL1-Q244-Avi-Tev-His; assay: BLI
[1] = target: T3, huCD33-G69-Fc recombinant protein (human, UniProt P20138 18-259); assay: BLI;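 note: biolayer interferometry: scFvs captured from periplasmic extracts on anti-V5-loaded streptavidin biosensors, antigen association for 2 min, buffer dissociation for 5 min, 1:1 Langmuir fit giving off-rate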
T3 construct: extracellular domain; also called CD33 R69G
Description: Discovered scFvs were analyzed for binding to huCD33-R69-His or huCD33-G69-Fc recombinant proteins (for anti-CD33 scFvs; for CLL-1 scFvs, huCLL1-K244-Avi-Tev-His or huCLL1-Q244-Avi-Tev-His were used; for FLT3, huFLT3-T227-His or huFLT3-M227-Fc were used) using BLI on a ForteBio Octet HTX instrument. Streptavidin-coated biosensors were loaded with biotinylated anti-V5 tag monoclonal antibody for 5 min and were then quenched and blocked with 20 μM amine-PEG2-Biotin for 5 min. scFvs were captured on biosensors from scFv clone periplasmic extracts. huCD33 (or huCLL-1, or huFLT3) proteins were then associated with the captured scFvs for 2 minutes, followed by dissociation with buffer (1×HBST [10 mM HEPES pH 7.4, 150 mM NaCl, 0.05% Tween-20], 1 g/L BSA) for 5 minutes. […] Data was fitted with 1:1 Langmuir equation and off-rate values were reported.

[2] = target: T4, huCD33-R69 stably expressed on Jurkat cells (human, UniProt P20138 18-364); assay: FACS on cells;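 note: fixed Jurkat lines probed with myc-tagged scFv periplasmic extracts, anti-myc PE flow cytometry, PE MFI fold binned − <2, + 2–10, ++ 10–30, +++ >30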
T4 construct: whole, on cells; >200,000 receptors per cell; also called CD33 WT; CD33^ARG69

[3] = target: T5, huCD33-G69 stably expressed on Jurkat cells (human, UniProt P20138 18-364); assay: FACS on cells;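 note: fixed Jurkat lines probed with myc-tagged scFv periplasmic extracts, anti-myc PE flow cytometry, PE MFI fold binned − <2, + 2–10, ++ 10–30, +++ >30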
T5 construct: whole, on cells; >200,000 receptors per cell; also called CD33 Mutant; CD33 R69G
T5 sequence (P20138 18-364 R69G): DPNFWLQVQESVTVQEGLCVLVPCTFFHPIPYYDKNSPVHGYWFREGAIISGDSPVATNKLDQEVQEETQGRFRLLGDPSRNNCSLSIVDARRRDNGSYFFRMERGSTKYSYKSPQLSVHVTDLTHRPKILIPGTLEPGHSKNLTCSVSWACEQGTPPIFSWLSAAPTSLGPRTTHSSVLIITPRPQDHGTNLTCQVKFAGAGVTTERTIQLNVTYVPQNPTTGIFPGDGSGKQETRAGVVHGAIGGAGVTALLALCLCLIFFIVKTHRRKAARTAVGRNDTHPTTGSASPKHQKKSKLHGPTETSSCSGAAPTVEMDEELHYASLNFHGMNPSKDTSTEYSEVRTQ

T3 sequence (P20138 18-259 R69G): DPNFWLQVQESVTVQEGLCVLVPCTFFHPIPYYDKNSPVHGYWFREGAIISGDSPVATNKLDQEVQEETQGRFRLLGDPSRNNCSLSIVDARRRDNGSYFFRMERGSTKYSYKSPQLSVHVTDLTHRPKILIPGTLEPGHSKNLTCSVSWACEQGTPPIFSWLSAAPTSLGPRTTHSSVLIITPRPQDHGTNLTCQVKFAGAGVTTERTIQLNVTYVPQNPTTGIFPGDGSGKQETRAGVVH
T4 sequence (P20138 18-364): as the sequence (P20138 18-364 R69G) above, with G52R counted along it

binding result (huCLL1-K244-Avi-Tev-His)	binding result (huCLL1-Q244-Avi-Tev-His)	binding result [1]	FACS geometric mean fold change over Jurkat parental [2]	FACS geometric mean fold change over Jurkat parental [3]	Binder
binds	binds				Polypeptide No. 190 (scFv, V domains shown, scFv) VH: EVQLLESGGGLVQPGGSLRLSCAASGFTFSSSWMHWVRQAPGKGLEWVSTINTNGDAAYYADSVKGRFTISRDNSKNTLYLQMNSLRAEDTAVYYCARDTVLDDYGDYDDYGMDVWGQGTTVTVSS VL: EIVMTQSPATLSVSPGERATLSCRASQSVSSSYLAWYQQKPGQAPRLLIYGASTRAAGIPARFSGSGSGTEFTLTISSLQSEDFAVYYCQQYGSSPFTFGPGTKVDIKR
		binds	2 to 10 fold	2 to 10 fold	Polypeptide No. 95 (scFv, V domains shown, scFv) VH: QVQLVQSGAEVKKPGSSVKVSCKASGYSFTTYDINWVRQAPGQGLEWMGRMNPNSGNTGYAQKFQGRVTITADESTSTAYMELSSLRSEDTAVYYCARVVHGMDVWGQGTTVTVSS VL: not shown
		binds	> 30 fold	> 30 fold	Polypeptide No. 96 (scFv, V domains shown, scFv) VH: QVQLVQSGAEVKKPGASVKVSCKASGGTFSSYAISWVRQAPGQGLEWMGWMNPSSANTGYAQKFQGRVTMTRDTSTSTVYMELSSLRSEDTAVYYCAKDEMELLTAFDIWGQGTMVTVSS VL: DIQMTQSPSSLSASVGDRVTITCRASQSIGSWLAWYQQKPGKAPKLLIYGVSTLHSGVPSRFSGSGSGTDFTLTISSLQPEDFATYYCQQSYSTPPTFGQGTKLEIKR
		binds	10 to 30 fold	> 30 fold	Polypeptide No. 98 (scFv, V domains shown, scFv) VH: QVQLVQSGAEVKKPGASVKVSCKASGGSFSSSAINWVRQAPGQGLEWMGWMNPNSGNTGYAQKFQGRVTMTRDTSTSTVYMELSSLRSEDTAVYYCARDRGIAVAGASPYYYYGMDVWGQGTTVTVSS VL: DIQMTQSPSSLSASVGDRVTITCRASQDIGSYLAWYQQKPGKAPKLLIYAASSLQSGVPSRFSGSGSGTDFTLTISSLQPEDFATYYCHQSYSTPFTFGQGTKLEIKR
binds	binds				Polypeptide No. 194 (scFv, V domains shown, scFv) VH: QVQLVQSGAEVKKPGASVKVSCKASGVTFSNSGINWVRQAPGQGLEWMGWMNPASGDTGYAQKFQGRVTMTRDTSTSTVYMELSSLRSEDTAVYYCARGEYGAEYFQHWGQGTLVTVSS VL: DIQMTQSPSSLSASVGDRVTITCRASQSISSWLAWYQQKPGKAPKLLIYDASSLESGVPSRFSGSGSGTDFTLTISSLQPEDFATYYCQQSHSLPPTFGQGTRLEIKR
		binds	> 30 fold	10 to 30 fold	Polypeptide No. 99 (scFv, V domains shown, scFv) VH: QVQLVQSGAEVKKPGSSVKVSCKASGYTFSDYHIHWVRQAPGQGLEWMGWMNPNSGNTGYAQKFQGRVTITADESTSTAYMELSSLRSEDTAVYYCARTHSSGYYYWFDPWGQGTLVTVSS VL: DIQMTQSPSSLSASVGDRVTITCRASQGISNNLNWYQQKPGKAPKLLIYQASNKDTGVPSRFSGSGSGTDFTLTISSLQPEDFATYYCQQSYSSPPTFGQGTKVEIKR
binds	no binding				Polypeptide No. 200 (scFv, V domains shown, scFv) VH: QVQLVQSGAEVKKPGASVKVSCKASGYTFTDYYMHWVRQAPGQGLEWMGWMNPNSGNTGYAQKFQGRVTMTRDTSTSTVYMELSSLRSEDTAVYYCAADDTKSPYGMDVWGQGTMVTVSS VL: DIQMTQSPSSLSASVGDRVTITCQASQDISNYLNWYQQKPGKAPKLLIYEASSLQSGVPSRFSGSGSGTDFTLTISSLQPEDFATYYCQQTYSPPPTFGQGTKLEIKR
		binds	10 to 30 fold	2 to 10 fold	Polypeptide No. 97 (scFv, V domains shown, scFv) VH: EVQLLESGGGLVQPGGSLRLSCAASGFTFRSYWMTWVRQAPGKGLEWVSVISGSGDNTYYADSVKGRFTISRDNSKNTLYLQMNSLRAEDTAVYYCARETTWGMDVWGQGTTVTVSS VL: DIQMTQSPSSLSASVGDRVTITCRASQSISSYLNWYQQKPGKAPKLLIYDASNLETGVPSRFSGSGSGTDFTLTISSLQPEDFATYYCQQSSIIPLTFGGGTKVEIKR
binds	binds				Polypeptide No. 195 (scFv, V domains shown, scFv) VH: QVQLVQSGAEVKKPGASVKVSCKASGYTFTNSYIHWVRQAPGQGLEWMGIINPSGDSTTYAQKFQGRVTMTRDTSTSTVYMELSSLRSEDTAVYYCAKPTTGDGMDVWGQGTTVTVSS VL: DIQMTQSPSSLSASVGDRVTITCRASQGISNWLAWYQQKPGKAPKLLIYDASNLETGVPSRFSGSGSGTDFTLTISSLQPEDFATYYCQQSYSTPLTFGGGTKVEIKR
no binding	binds				Polypeptide No. 196 (scFv, V domains shown, scFv) VH: QVQLVQSGAEVKKPGASVKVSCKASGYTLTNYYMHWVRQAPGQGLEWMGWISPTDGKTKYAQKFQGRVTMTRDTSTSTVYMELSSLRSEDTAVYYCTTDLLGDWFDPWGQGTLVTVSS VL: DIQMTQSPSSLSASVGDRVTITCRASRSIRSYLNWYQQKPGKAPKLLIYDASNLETGVPSRFSGSGSGTDFTLTISSLQPEDFATYYCQQSYNTPWTFGQGTKVEIKR
binds	no binding				Polypeptide No. 198 (scFv, V domains shown, scFv) VH: EVQLLESGGGLVQPGGSLRLSCAASGFTFSTFWMSWVRQAPGKGLEWVATISYDGSNQYYADSVKGRFTISRDNSKNTLYLQMNSLRAEDTAVYYCARLELHEGRFDYWGQGTLVTVSS VL: DIQMTQSPSSLSASVGDRVTITCRASQSISSYLNWYQQKPGKAPKLLIYDASNLETGVPSRFSGSGSGTDFTLTISSLQPEDFATYYCQQANSFPFTFGPGTKVDIKR
		binds	2 to 10 fold	2 to 10 fold	Polypeptide No. 93 (scFv, V domains shown, scFv) VH: QVQLVQSGAEVKKPGASVKVSCKASGYSFTNYDISWVRQAPGQGLEWMGWVNPNSGNTGYAQKFQGRVTMTRDTSTSTVYMELSSLRSEDTAVYYCAKDAPYYYDSSGYYGVFDYWGQGTLVTVSS VL: DIVMTQSPLSLPVTPGEPASISCRSSQSLLHSNGYNYLDWYLQKPGQSPQLLIYAASSLQSGVPDRFSGSGSGTDFTLKISRVEAEDVGVYYCMQALQTPLTFGQGTRLEIKR
		binds	2 to 10 fold	10 to 30 fold	Polypeptide No. 94 (scFv, V domains shown, scFv) VH: QVQLVQSGAEVKKPGASVKVSCKASGYTFTTYDINWVRQAPGQGLEWMGWISGYNGNTGYAQKFQGRVTMTRDTSTSTVYMELSSLRSEDTAVYYCAKDMGYGDYPDAFDIWGQGTMVTVSS VL: DIVMTQSPLSLPVTPGEPASISCRSSQSLLHSNGYNYLDWYLQKPGQSPQLLIYAASTLQSGVPDRFSGSGSGTDFTLKISRVEAEDVGVYYCMQALQIPITFGQGTKVEIKR
		binds	> 30 fold	> 30 fold	Polypeptide No. 101 (scFv, V domains shown, scFv) VH: EVQLLESGGGLVQPGGSLRLSCAASGFTFSSYGVHWVRQAPGKGLEWVSAISGDGGDTYYADSVKGRFTISRDNSKNTLYLQMNSLRAEDTAVYYCARDTWDYSNYGGIDYWGQGTLVTVSS VL: DIQMTQSPSSLSASVGDRVTITCRASQNINTFLNWYQQKPGKAPKLLIYAASTLQSGVPSRFSGSGSGTDFTLTISSLQPEDFATYYCQQYDSFPLTFGGGTKVEIKR
binds	binds				Polypeptide No. 197 (scFv, V domains shown, scFv) VH: QVQLVQSGAEVKKPGASVKVSCKASGYTLTNNWMHWVRQAPGQGLEWMGWMNPNSGNTGYAQKFQGRVTMTRDTSTSTVYMELSSLRSEDTAVYYCATATADDAFDIWGQGTMVTVSS VL: DIQMTQSPSSLSASVGDRVTITCRASQSISTWLAWYQQKPGKAPKLLIYGASSLQSGVPSRFSGSGSGTDFTLTISSLQPEDFATYYCQQSYDIPITFGPGTKVDIKR
binds	no binding				Polypeptide No. 199 (scFv, V domains shown, scFv) VH: QVQLVQSGAEVKKPGASVKVSCKASGDTFTGYHIHWVRQAPGQGLEWMGWMNPDSGSTGYAQKFQGRVTMTRDTSTSTVYMELSSLRSEDTAVYYCTTDRLYGDYFDYWGQGTLVTVSS VL: DIQMTQSPSSLSASVGDRVTITCRASQSVSSWLAWYQQKPGKAPKLLIYDASSLQSGVPSRFSGSGSGTDFTLTISSLQPEDFATYYCQQANSFPFTFGPGTKVDIKR
		binds	2 to 10 fold	2 to 10 fold	Polypeptide No. 92 (scFv, V domains shown, scFv) VH: QVQLVQSGAEVKKPGASVKVSCKASGYTFTNHYMHWVRQAPGQGLEWMGIINPSGGSTSYAQKFQGRVTMTRDTSTSTVYMELSSLRSEDTAVYYCASAEVGATHYGMDVWGQGTTVTVSS VL: DIVMTQSPLSLPVTPGEPASISCRSSQSLLHSNGYNYLDWYLQKPGQSPQLLIYAASSLQSGVPDRFSGSGSGTDFTLKISRVEAEDVGVYYCMQALHPPTFGQGTKVEIKR
